# Results as given in publication PMC6160459, “Identification of Peptide Mimotope Ligands for Natalizumab” (Scientific Reports, 2018).
# Experiments:
# Ntz-06 synthetic peptide [1] = assay: ELISA; Protocol-2: biotinylated peptide at 1 µg/ml in TBS on streptavidin-coated wells; natalizumab in 2.5% BSA/1X casein/TBST (or diluted human serum) 1 h at RT; detected with anti-IgG4-HRP; apparent affinity
# Ntz-07 synthetic peptide [2] = assay: as above
# Ntz-05 synthetic peptide = assay: BLI; Octet Red96; 10 µg/ml peptide immobilised on a streptavidin sensor; natalizumab in solution 1-600 nM, three-fold dilutions; TBS; apparent affinity
# Ntz-06 synthetic peptide [3] = assay: as above
# Ntz-03 synthetic peptide = assay: as above
# Ntz-07 synthetic peptide [4] = assay: as above
# Ntz-04 synthetic peptide = assay: as above
# Ntz-02 synthetic peptide = assay: as above
# Ntz-01 synthetic peptide = assay: as above
# Natalizumab = assay: peptide array variant scan, natalizumab binding in arbitrary ELISA units; conditions: chain shown with the change;, read off a plot
binder,measurement,setting,value
"Natalizumab (antibody, V domains shown) VH: QVQLVQSGAEVKKPGASVKVSCKASGFNIKDTYIHWVRQAPGQRLEWMGRIDPANGYTKYDPKFQGRVTITADTSASTAYMELSSLRSEDTAVYYCAREGYYGNYGVYAMDYWGQGTLVTVSS VL: DIQMTQSPSSLSASVGDRVTITCKTSQDINKYMAWYQQTPGKAPRLLIHYTSALQPGIPSRFSGSGSGRDYTFTISSLQPEDIATYYCLQYDNLWTFGQGTKVEIK",fold improvement of apparent affinity over Ntz-01,Ntz-06 synthetic peptide [1],1.7 fold
same,fold improvement of apparent affinity over Ntz-02,Ntz-07 synthetic peptide [2],6.2 fold
same,fold improvement of apparent affinity over Ntz-03,Ntz-07 synthetic peptide [2],14 fold
same,Kd,Ntz-05 synthetic peptide,10.5 nM
same,Kd,Ntz-06 synthetic peptide [3],6.87 nM
same,Kd,Ntz-03 synthetic peptide,31.4 nM
same,Kd,Ntz-07 synthetic peptide [4],3.24 nM
same,Kd,Ntz-04 synthetic peptide,6.03 nM
same,Kd,Ntz-02 synthetic peptide,32.1 nM
same,Kd,Ntz-01 synthetic peptide,29.1 nM
ACPRNESKFC [Ntz-01 parent peptide on the Pepscan array H4R],response,Natalizumab; parent: est. 1100,2400 mAU
ACPMNPSKFC [Ntz-01 parent peptide on the Pepscan array E6P],response,Natalizumab; parent: est. 1100,1500 mAU
ACPKNPSKFC [Ntz-03 parent peptide on the Pepscan array N7S],response,Natalizumab; parent: est. 60,2300 mAU
ACPQNPSKFC [Ntz-02 parent peptide on the Pepscan array S4Q],response,Natalizumab; parent: est. 80,1000 mAU
ACPKNPSKFC [Ntz-02 parent peptide on the Pepscan array S4K],response,Natalizumab; parent: est. 80,1900 mAU
